Source: US20250042956A1 (University of California, published 2025)

What was measured:
Test in all cases: IP-MS rep 1
AT3G10480.3 NAC050 = biological target: T1, AT3G10480.3 NAC050 (Arabidopsis thaliana, UniProt Q9SQX9 1-447, limits assumed)
T1 construct: Endogenous protein found by mass spectrometry
T1 sequence (looked up): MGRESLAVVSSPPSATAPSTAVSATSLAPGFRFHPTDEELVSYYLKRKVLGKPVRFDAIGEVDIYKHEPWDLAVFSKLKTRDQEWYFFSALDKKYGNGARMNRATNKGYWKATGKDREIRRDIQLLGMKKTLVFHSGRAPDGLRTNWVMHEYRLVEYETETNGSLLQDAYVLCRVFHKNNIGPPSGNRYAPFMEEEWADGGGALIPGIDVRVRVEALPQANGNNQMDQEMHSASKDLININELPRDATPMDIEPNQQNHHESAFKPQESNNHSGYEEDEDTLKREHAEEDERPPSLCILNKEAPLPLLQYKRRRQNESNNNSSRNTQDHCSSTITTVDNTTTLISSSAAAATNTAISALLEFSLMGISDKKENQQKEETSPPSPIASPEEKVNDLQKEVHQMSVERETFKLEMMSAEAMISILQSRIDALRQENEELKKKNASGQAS
Summary of the method: (§1)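 Mass spectrometry of anti-FLAG eluates gave the peptide counts for co-purified proteins. The eluates came from ten grams of unopened floral buds of wild-type and FLAG-tagged transgenic Arabidopsis, ground in liquid nitrogen and homogenised in 25 mL IP buffer. Lysates were bound to 250 μL anti-FLAG M2 magnetic beads for 2 hours at 4° C and released with 250 μg/mL 3×FLAG peptides in TBS.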

AT4G35510.1 TRBIP1 = biological target: T2, AT4G35510.1 TRBIP1 (Arabidopsis thaliana)
T2 construct: Endogenous protein found by mass spectrometry
T2 chain: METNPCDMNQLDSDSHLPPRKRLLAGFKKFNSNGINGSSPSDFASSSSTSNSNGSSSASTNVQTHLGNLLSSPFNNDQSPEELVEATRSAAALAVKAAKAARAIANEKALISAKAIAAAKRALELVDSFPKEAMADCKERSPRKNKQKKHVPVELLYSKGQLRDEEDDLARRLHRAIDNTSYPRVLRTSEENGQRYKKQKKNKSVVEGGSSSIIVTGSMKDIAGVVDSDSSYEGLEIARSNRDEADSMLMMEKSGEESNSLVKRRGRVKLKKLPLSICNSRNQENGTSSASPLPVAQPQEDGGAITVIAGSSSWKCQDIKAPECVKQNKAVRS
Summary of the method: as §1

AT5G08450.1 HDC1 = biological target: T3, AT5G08450.1 HDC1 (Arabidopsis thaliana)
T3 construct: Endogenous protein found by mass spectrometry
Summary of the method: as §1

AT5G67580.1 TRB2 = biological target: T4, AT5G67580.1 TRB2 (Arabidopsis thaliana, UniProt Q9FJW5 1-299)
T4 construct: Endogenous protein found by mass spectrometry
T4 sequence: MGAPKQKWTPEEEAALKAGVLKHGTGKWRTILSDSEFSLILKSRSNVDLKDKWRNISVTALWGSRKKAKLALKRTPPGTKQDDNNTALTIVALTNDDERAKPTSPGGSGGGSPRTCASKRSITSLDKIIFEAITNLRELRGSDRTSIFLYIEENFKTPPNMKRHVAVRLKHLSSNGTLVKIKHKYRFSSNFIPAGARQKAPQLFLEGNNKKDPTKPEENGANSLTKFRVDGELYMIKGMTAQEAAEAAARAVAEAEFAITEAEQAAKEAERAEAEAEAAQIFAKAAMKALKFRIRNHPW
Summary of the method: as §1

AT3G49850.1 TRB3 = biological target: T5, AT3G49850.1 TRB3 (Arabidopsis thaliana, UniProt Q9M2X3 1-295)
T5 construct: Endogenous protein found by mass spectrometry
T5 sequence: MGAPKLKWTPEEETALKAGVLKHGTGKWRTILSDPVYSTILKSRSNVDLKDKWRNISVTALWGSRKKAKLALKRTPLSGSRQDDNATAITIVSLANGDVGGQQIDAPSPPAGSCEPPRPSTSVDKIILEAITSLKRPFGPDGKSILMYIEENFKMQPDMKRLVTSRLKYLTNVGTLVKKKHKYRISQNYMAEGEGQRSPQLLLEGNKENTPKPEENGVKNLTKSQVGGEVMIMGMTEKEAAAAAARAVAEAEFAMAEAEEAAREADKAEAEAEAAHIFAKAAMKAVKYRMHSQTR
Summary of the method: as §1

B1: TRBIP2 (bait of the TRBIP2 IP-MS) (other, not shown: small tags and cut ends)
chain: MATNACLESDSLLPPRKRLLAGFKNQNSRISNESPSPPFASSSSSTTTSNGSSASAVVHTHHLDHLLNDQTRSPEELAQASKATAALAVKVAKAARATANEKAIIASKAVAAAKNALELFASFPAAETVSCKEPRLIRAINNSPRVLTDCSGHRNKKQKTLTSTMNDGNDVAGVVDSDDGTRVNGKLLLCDNTLKEKTEEESSSLGKRRGRVKLPLSMCAYKDQENGITLEENNLSVSKSEGYNGGVAQVIERPSWKCQDLKSPECVKQNKVVRS
notes: tag and its position not described; also called TRBIP2-1; TRBIP2-2
In the case of B1, the IP-MS count (AT3G10480.3 NAC050) is reported as 1, the IP-MS count (AT4G35510.1 TRBIP1) is reported as 1 and the IP-MS count (AT5G08450.1 HDC1) is reported as 2. For the same binder, the IP-MS count (AT5G67580.1 TRB2) was 43 and the IP-MS count (AT3G49850.1 TRB3) was 8.
